B1: Calcium-dependent protein kinase 4 (Arabidopsis thaliana (Mouse-ear cress)), Q38869 (parent)
chain: MEKPNPRRPSNSVLPYETPRLRDHYLLGKKLGQGQFGTTYLCTEKSSSANYACKSIPKRKLVCREDYEDVWREIQIMHHLSEHPNVVRIKGTYEDSVFVHIVMEVCEGGELFDRIVSKGCFSEREAAKLIKTILGVVEACHSLGVMHRDLKPENFLFDSPSDDAKLKATDFGLSVFYKPGQYLYDVVGSPYYVAPEVLKKCYGPEIDVWSAGVILYILLSGVPPFWAETESGIFRQILQGKIDFKSDPWPTISEGAKDLIYKMLDRSPKKRISAHEALCHPWIVDEHAAPDKPLDPAVLSRLKQFSQMNKIKKMALRVIAERLSEEEIGGLKELFKMIDTDNSGTITFEELKAGLKRVGSELMESEIKSLMDAADIDNSGTIDYGEFLAATLHINKMEREENLVVAFSYFDKDGSGYITIDELQQACTEFGLCDTPLDDMIKEIDLDNDGKIDFSEFTAMMKKGDGVGRSRTMRNNLNFNIAEAFGVEDTSSTAKSDDSPK
partner: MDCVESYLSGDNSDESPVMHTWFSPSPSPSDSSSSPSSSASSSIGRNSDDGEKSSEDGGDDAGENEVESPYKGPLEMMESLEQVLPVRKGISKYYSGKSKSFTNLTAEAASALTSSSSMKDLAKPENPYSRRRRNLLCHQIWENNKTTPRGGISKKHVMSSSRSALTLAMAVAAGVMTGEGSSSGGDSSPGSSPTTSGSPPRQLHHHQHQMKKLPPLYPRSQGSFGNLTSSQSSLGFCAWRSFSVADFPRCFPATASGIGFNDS

Variants of: B1
Conditions: with o3l1_arath O3L1, Q9C593

Row | effect of a mutation on the interaction | Variant
1 | disrupting interaction | D170A;F305A
2 | disrupting interaction | D149A
3 | disrupting interaction | D170A
4 | disrupting interaction | D149A;F305A
